Assay results reported in PMC8339797 (2021).
Numbered stars: 1 amine (or outer) side, 2 acyl side, 3 side chain; on linkers, the order of the positions; unused ones are H or OH. Square brackets hold non-standard residues; d marks the D form. Side chains are listed from the residue outwards. dextran = polysaccharide of α-(1–6)-linked D-glucose units with low branching; Propanoyl(3-triazol-4-yl) = O=C(CCc1cn([*:1])nn1)[*:2]

Molecular target: T1, RGD-decorated Fc-dextran-MMAE construct 20 (cyclo[RGDfK] multimer) (also: multivalent on dextran conjugated to aglycosylated human Fc N297A with MMAE)
T1 chain: cyclo(RGD[dF]K([Propanoyl(3-triazol-4-yl)-dextran]))
Test: flow cytometry cell binding (apparent KD)

B1: integrin alpha-v beta-3 (on U87MG cells) (protein)
chain 1: FNLDVDSPAEYSGPEGSYFGFAVDFFVPSASSRMFLLVGAPKANTTQPGIVEGGQVLKCDWSSTRRCQPIEFDATGNRDYAKDDPLEFKSHQWFGASVRSKQDKILACAPLYHWRTEMKQEREPVGTCFLQDGTKTVEYAPCRSQDIDADGQGFCQGGFSIDFTKADRVLLGGPGSFYWQGQLISDQVAEIVSKYDPNVYSIKYNNQLATRTAQAIFDDSYLGYSVAVGDFNGDGIDDFVSGVPRAARTLGMVYIYDGKNMSSLYNFTGEQMAAYFGFSVAATDINGDDYADVFIGAPLFMDRGSDGKLQEVGQVSVSLQRASGDFQTTKLNGFEVFARFGSAIAPLGDLDQDGFNDIAIAAPYGGEDKKGIVYIFNGRSTGLNAVPSQILEGQWAARSMPPSFGYSMKGATDIDKNGYPDLIVGAFGVDRAILYRARPVITVNAGLEVYPSILNQDNKTCSLPGTALKVSCFNVRFCLKADGKGVLPRKLNFQVELLLDKLKQKGAIRRALFLYSRSPSHSKNMTISRGGLMQCEELIAYLRDESEFRDKLTPITIFMEYRLDYRTAADTTGLQPILNQFTPANISRQAHILLDCGEDNVCKPKLEVSVDSDQKKIYIGDDNPLTLIVKAQNQGEGAYEAELIVSIPLQADFIGVVRNNEALARLSCAFKTENQTRQVVCDLGNPMKAGTQLLAGLRFSVHQQSEMDTSVKFDLQIQSSNLFDKVSPVVSHKVDLAVLAAVEIRGVSSPDHVFLPIPNWEHKENPETEEDVGPVVQHIYELRNNGPSSFSKAMLHLQWPYKYNNNTLLYILHYDIDGPMNCTSDMEINPLRIKISSLQTTEKNDTVAGQGERDHLITKRDLALSEGDIHTLGCGVAQCLKIVCQVGRLDRGKSAILYVKSLLWTETFMNKENQNHSYSLKSSASFNVIEFPYKNLPIEDITNSTLVTTNVTWGIQPAPMPV
chain 2: GPNICTTRGVSSCQQCLAVSPMCAWCSDEALPLGSPRCDLKENLLKDNCAPESIEFPVSEARVLEDRPLSDKGSGDSSQVTQVSPQRIALRLRPDDSKNFSIQVRQVEDYPVDIYYLMDLSYSMKDDLWSIQNLGTKLATQMRKLTSNLRIGFGAFVDKPVSPYMYISPPEALENPCYDMKTTCLPMFGYKHVLTLTDQVTRFNEEVKKQSVSRNRDAPEGGFDAIMQATVCDEKIGWRNDASHLLVFTTDAKTHIALDGRLAGIVQPNDGQCHVGSDNHYSASTTMDYPSLGLMTEKLSQKNINLIFAVTENVVNLYQNYSELIPGTTVGVLSMDSSNVLQLIVDAYGKIRSKVELEVRDLPEELSLSFNATCLNNEVIPGLKSCMGLKIGDTVSFSIEAKVRGCPQEKEKSFTIKPVGFKDSLIVQVTFDCDCACQAQAEPNSHRCNNGNGTFECGVCRCGPGWLGSQCECSEEDYRPSQQDECSPREGQPVCSQRGECLCGQCVCHSSDFGKITGKYCECDDFSCVRYKGEMCSGHGQCSCGDCLCDSDWTGYYCNCTTRTDTCMSSNGLLCSGRGKCECGSCVCIQPGSYGDTCEKCPTCPDACTFKKECVECKKFDRGALHDENTCNRYCRDEIESVKELKDTGKDAVNCTYKNEDDCVVRFQYYEDSSGKSILYVVEEPECPKGPD
Work on B1 yielded a Kd of 33 nM.
